Laboratory results taken from article PMC11406360, “The enzymatic oxygen sensor cysteamine dioxygenase binds its protein substrates through their N-termini” (The Journal of Biological Chemistry, 2024).
Where a chain is given by its changes, count along the chain named. Names and notes keep the numbering of the source. Values joined by “and” are separate entries in the source; they are usually repeats but may differ in a detail not shown here. Identical values can stand only once.

How the values were obtained:
[1] = target: 2-aminoethanethiol (cysteamine) dioxygenase (ADO), biotinylated, for SPR (human) (UniProt Q96SZ5); experiment: SPR; Biacore T200; biotinylated ADO immobilized on a Biotin CAP chip (∼2500 to 3000 RU), peptide/protein substrates injected; 4 °C; 20 mM Hepes pH 7.5, 500 mM NaCl, 10 mM DTT, 0.1% tween-20; 50 μl/min; multicycle, equilibrium steady state affinity 1:1 binding model
[2] = target: T1, ADO (2-aminoethanethiol dioxygenase), iron-bound wild type (Homo sapiens, UniProt Q96SZ5); experiment: SPR binding of peptide/protein substrates to immobilised ADO
T1 construct: Full-length human ADO (UniProt ID: Q96SZ5) was cloned; made in house; host or cells: Rosetta2(DE3) Escherichia coli
T1 sequence (Q96SZ5 1-270): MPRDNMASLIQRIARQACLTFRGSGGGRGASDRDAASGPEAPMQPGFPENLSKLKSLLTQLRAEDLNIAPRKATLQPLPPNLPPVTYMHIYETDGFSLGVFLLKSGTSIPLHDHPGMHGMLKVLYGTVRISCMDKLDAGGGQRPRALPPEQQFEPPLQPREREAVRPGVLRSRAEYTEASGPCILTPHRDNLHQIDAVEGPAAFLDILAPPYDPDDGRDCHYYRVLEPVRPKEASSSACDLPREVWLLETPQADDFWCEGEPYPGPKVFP
Description: ADO catalyzes the O2-dependent sulfinylation of Nt-cys residues, which reportedly bind to the iron cofactor in a monodentate arrangement through ligation of the thiol group ([14], [15]). To test the importance of Nt-cys modifications and substitutions on ADO association, a SPR assay was established. […] Data collected under steady state conditions is presented in the main text and kinetic constants are provided in the Tables S1–S8 (alongside steady state measurements). All measurements were collected at 4 °C to minimize enzyme activity.
(§1) SPR measurements were made using a Biacore T200 (Cytiva) instrument and data were analyzed using the Biacore Insight Evaluation Software (Cytiva; https://www.cytivalifesciences.com/en/us/shop/protein-analysis/spr-label-free-analysis/spr-software-and-extensions/biacore-insight-evaluation-software-p-23528). Biotinylated-ADO was immobilized on a Biotin CAP chip (Cytiva) with a target density of ∼2500 to 3000 RU and peptide/protein substrates were injected over the chip. […] A buffer comprising 20 mM Hepes pH 7.5, 500 mM NaCl, 10 mM DTT, and 0.1% (v/v) tween-20 was used as the running buffer at a flow rate of 50 μl/min.
For metal-chelation experiments, a mixture of 10 mM 1, 10-phenanthroline and 100 mM EDTA (pH 8) was injected onto the chip using 10 × 60 s injections at a 100 μl/min flow rate. […] The instrument and chip were primed into buffer excluding reducing agents before conducting metal chelation and iron reconstitution.

ADO-H193D = target: T2, ADO-H193D (Homo sapiens, UniProt Q96SZ5, H193D); experiment: SPR binding to metal-deficient ADO-H193D mutant; details: 4 °C
T2 construct: Full-length human ADO (UniProt ID: Q96SZ5) was cloned; made in house; host or cells: Rosetta2(DE3) Escherichia coli
T2 sequence (Q96SZ5 1-270 H193D): T1 sequence (Q96SZ5 1-270) with H193D
Description: To further validate the importance of metal coordination in protein substrate binding, an ADO-H193D mutant, which is known to impair iron retention, was generated (Fig. S1B). A significant reduction in metal occupancy was confirmed by ICP-MS (Fig. 2C). This correlated with a low SPR-binding response of approximately ∼2 to 3 RU, indicating a reduced population of substrate-binding ADO on the chip relative to the total amount of immobilized ADO (Figs. 2D and S5D). Furthermore, the calculated Kᴅ values with native RGS5 and IL32 peptides were ∼13-fold and ∼77-fold weaker, respectively, than the interactions with WT ADO (Table S3).
as §1

ADO-Co^2+ = target: T3, ADO-Co^2+ (Homo sapiens, UniProt Q96SZ5); experiment: SPR binding (single cycle kinetics) to cobalt-substituted ADO; details: 4 °C, significantly slower off-rate
T3 construct: Full-length human ADO (UniProt ID: Q96SZ5) was cloned; made in house; host or cells: Rosetta2(DE3) Escherichia coli, M9 minimal media with 0.2 mM Co2+ or Zn2+
T3 sequence (Q96SZ5 1-270): T1 sequence (Q96SZ5 1-270)
Method: To study if different metals can compensate for the inherent iron cofactor, zinc (Zn^2+) and cobalt (Co^2+) substituted ADO was produced through minimal media expression, validated by ICP-MS, and analyzed for binding by SPR (Fig. 2E).
as §1

ADO = target: T4, ADO (Homo sapiens, UniProt Q96SZ5); experiment: LC-MS enzyme activity assay (Nt-cys sulfinylation by ADO); assay type: biochemical; details: 100 μM peptide, 0.1 μM ADO, 37 °C, 45 s and 1 h incubations
T4 construct: Full-length human ADO (UniProt ID: Q96SZ5) was cloned; made in house; host or cells: Rosetta2(DE3) Escherichia coli
T4 sequence (Q96SZ5 1-270): T1 sequence (Q96SZ5 1-270)
Method: (§2) […] Otherwise stated, the reaction buffer contained 50 mM Tris pH 7.5, 50 mM NaCl, and 5 mM TCEP. The reactions were quenched by mixing the sample 1:10 (peptide) or 1:5 (protein) with 1% formic acid (v/v).
(§3) Peptide and protein samples were injected onto a Chromolith RP-18 Endcapped HPLC Columns (100–2 mm; Merck) and Discovery BIO Wide Pore C5 HPLC Column (Supelco), respectively, heated to 40 °C and eluted at 0.3 ml/min using a gradient of 95% deionized water supplemented with 0.1% (v/v) formic acid to 95% acetonitrile. Oxidation was monitored by an ultra high-performance liquid chromatography MS using ExionLC AD (Sciex) and SelexION (Sciex) mass spectrometer operated in a positive electrospray TOF (+ESI-TOF) mode. Instrument parameters, data acquisition and data processing were controlled by Analyst software (Sciex; https://sciex.com/products/software/analyst-software). The peptide data processing was performed using Skyline software (MacCoss Lab Software; https://skyline.ms/project/home/software/Skyline/begin.view) ([38]). All figures and parameters were generated using GraphPad Prism 9 (GraphPad; https://www.graphpad.com/features).

[3] = target: T5, 2-aminoethanethiol (cysteamine) dioxygenase (ADO), biotinylated, for SPR (human, UniProt Q96SZ5 1-270, biotin (N terminally biotinylated; 0.2 mM biotin added at induction)); experiment: SPR
T5 chain: T1 sequence (Q96SZ5 1-270)

[4] = target: cobalt substituted ADO (ADO-Co^2+), biotinylated, for SPR (human) (UniProt Q96SZ5); experiment: SPR; as a1, but single cycle kinetics (SCK) mode fit to a 1:1 binding model; ADO-Co^2+ immobilized
[5] = target: T6, ADO-H193D, biotinylated, for SPR (human, UniProt Q96SZ5 1-270, H193D, biotin (N terminally biotinylated)); experiment: SPR; Biacore T200; biotinylated ADO immobilized on a Biotin CAP chip (∼2500 to 3000 RU), peptide/protein substrates injected; 4 °C; 20 mM Hepes pH 7.5, 500 mM NaCl, 10 mM DTT, 0.1% tween-20; 50 μl/min; multicycle, equilibrium steady state affinity 1:1 binding model; details: both partners purified
T6 construct: 2-aminoethanethiol (cysteamine) dioxygenase (ADO), human, UniProt Q96SZ5, full length, H193D; Mutant with impaired iron retention (reduced metal occupancy by ICP-MS); source: E. coli Rosetta2(DE3), pQE80L-Navi construct, site-directed mutagenesis, purified (Ni-NTA, SEC); not shown: biotinylation tag (from the vector pQE80L-Navi), N-terminal, kept
T6 sequence (looked up): T1 sequence (Q96SZ5 1-270) with H193D

[6] = target: ADO-H193D, biotinylated, for SPR (human, UniProt Q96SZ5 1-270, H193D, biotin (N terminally biotinylated)); experiment: SPR
[7] = target: T5, 2-aminoethanethiol (cysteamine) …; experiment: SPR; before treatment
[8] = target: T7, cobalt substituted ADO (ADO-Co^2+), biotinylated, for SPR (human, UniProt Q96SZ5 1-270, biotin (N terminally biotinylated)); experiment: SPR; single cycle kinetics
T7 chain: T1 sequence (Q96SZ5 1-270)

[9] = target: T5, 2-aminoethanethiol (cysteamine) …; experiment: SPR; post-reconstitution with Fe2+
[10] = target: T5, 2-aminoethanethiol (cysteamine) …; experiment: SPR; post-metal removal (phenanthroline/EDTA)
[11] = substrate: CC(C)C[C@H](NC(=O)CNC(=O)[C@H](C)NC(=O)[C@@H](N)CS)C(=O)N[C@@H](C)C(=O)N[C@@H](C)C(=O)N[C@@H](CC(C)C)C(=O)N1CCC[C@H]1C(=O)N[C@@H](Cc1c[nH]cn1)C(=O)N[C@@H](CO)C(=O)N[C@@H](CS)C(=O)N[C@@H](CC(C)C)C(=O)N[C@@H](CCC(=O)O)C(=O)N[C@@H](CCCNC(=N)N)C(N)=O; experiment: LC-MS enzyme activity assay (Nt-cys sulfinylation by ADO); assay type: biochemical, human; details: other: Michaelis-Menten, stopped LC-MS assay, 37 °C, atmospheric O2; three independent experiments; pH 7.5; 37.0 °C
Method: as §2, §3

[12] = substrate: CC(C)C[C@H](NC(=O)CNC(=O)[C@H](CCCCN)NC(=O)[C@@H](N)CS)C(=O)N[C@@H](C)C(=O)N[C@@H](C)C(=O)N[C@@H](CC(C)C)C(=O)N1CCC[C@H]1C(=O)N[C@@H](Cc1c[nH]cn1)C(=O)N[C@@H](CO)C(=O)N[C@@H](CS)C(=O)N[C@@H](CC(C)C)C(=O)N[C@@H](CCC(=O)O)C(=O)N[C@@H](CCCNC(=N)N)C(N)=O; experiment: as above; assay type: biochemical, human; details: other: Michaelis-Menten, stopped LC-MS assay, atmospheric O2, three independent experiments, pH 7.5
Method: as §2, §3

[13] = substrate: CC(C)C[C@H](NC(=O)[C@H](C)NC(=O)[C@H](CCCCN)NC(=O)[C@@H](N)CS)C(=O)N[C@@H](C)C(=O)N[C@@H](C)C(=O)N[C@@H](CC(C)C)C(=O)N1CCC[C@H]1C(=O)N[C@@H](Cc1c[nH]cn1)C(=O)N[C@@H](CO)C(=O)N[C@@H](CS)C(=O)N[C@@H](CC(C)C)C(=O)N[C@@H](CCC(=O)O)C(=O)N[C@@H](CCCNC(=N)N)C(N)=O; experiment: as above; assay type: biochemical, human; details: other: Michaelis-Menten, stopped LC-MS assay, 37 °C, atmospheric O2; three independent experiments; pH 7.5; 37.0 °C
Method: as §2, §3

Q: “RGS5 dipeptide (di-RGS5) (from UniProt O15539 2-3)” was tested. Which Kd [1] did it give?
A: The Kd was 1.2 µM.

Q: How did the Kd ([2]; SPR steady state, 1:1 binding model, biotinylated ADO on Biotin CAP chip, 4 °C, 20 mM Hepes pH 7.5, 500 mM NaCl, 10 mM DTT, 0.1% tween-20, geometric mean (± SD) of minimum three independent measurements, read-out: Equilibrium dissociation constant KD) turn out when “H-CFPKVLSDDMKKLK-NH2 (C-terminus assumed) [IL32]” was run?
A: The Kd was 0.27 ± 0.005 µM.

Q: What about the “Maximum response (Rmax)” value ([2]; SPR, ADO prior to chelation treatment) of the same molecule?
A: Its value is ~20 RU.

Q: And the “Loss in Rmax following chelation of the immobilized ADO-bound metal” value ([2]; SPR, after 10 mM 1,10-phenanthroline and 100 mM EDTA)?
A: Its value is ~80%.

Q: What about the “Fold weaker KD with ADO-H193D than with WT ADO” value (ADO-H193D) of the same molecule?
A: Its value is ~77 fold.

Q: What about the “Fold increase in binding affinity with ADO-Co^2+ relative to native ADO” value (ADO-Co^2+) of the same molecule?
A: Its value is ~10 fold.

Q: And the “Oxidation (sulfinylation, +32 Da) by ADO” value (ADO)?
A: Its value is “could be oxidized by ADO”.

Q: With “RGS5 tripeptide (tri-RGS5) (from UniProt O15539 2-4)” as the molecule, how does the Kd [1] read?
A: The Kd was 0.46 µM.

Q: CKGLAALPASCLER [RGS5-H10A] was tested. Which Kd [3] did it give?
A: Its Kd is 0.24 µM.

B1: native IL32 peptide (first 14 amino acids of the methionine excised N terminus of interleukin 32) (peptide, UniProt P24001 2-15, looked up)
peptide: CFPKVLSDDMKKLK
notes: interleukin 32 (IL32), first 14 amino acids of the methionine excised N terminus: residues 2-15 with the initiating methionine denoted as 1; source: synthetic peptide (SPPS, HPLC purified)
Q: Which fold increase in binding affinity relative to native ADO [4] does the source give for B1 here?
A: The fold increase in binding affinity relative to native ADO was 10 fold.

Q: And the “fold weaker KD than with WT ADO” value [5]?
A: Its value is ~77 fold.

B2: native RGS5 peptide (first 14 amino acids of the methionine excised N terminus of RGS5) (peptide, UniProt O15539 2-15, looked up)
peptide: CKGLAALPHSCLER
notes: regulator of G-protein signaling 5 (RGS5), first 14 amino acids of the methionine excised N terminus: residues 2-15 with the initiating methionine denoted as 1; source: synthetic peptide (SPPS, HPLC purified)
Q: For B2, which Kd [6] is on record?
A: The Kd was 3.3 µM.

Q: And the Kd [7]?
A: The Kd was 0.37 µM.

Q: What about the Kd [8] of the same molecule?
A: The Kd was 0.027 µM.

Q: What about the Kd [9] of the same molecule?
A: The Kd was 0.33 µM.

Q: And the Kd [10]?
A: Its Kd is 0.32 µM.

Q: What about the fold increase in binding affinity relative to native ADO [4] of the same molecule?
A: The fold increase in binding affinity relative to native ADO was 10 fold.

Q: And the “fold weaker KD than with WT ADO” value [5]?
A: Its value is ~13 fold.

B3: ADO (Homo sapiens) (protein)
chain: T1 sequence (Q96SZ5 1-270)
notes: Full-length human ADO (UniProt ID: Q96SZ5) was cloned; made in house; host or cells: Rosetta2(DE3) Escherichia coli
Q: Which results are given for B3?
A: Km [11]: 1970 µM; kcat [11]: 100 s⁻¹; kcat/Km [11]: 0.51 x 10^5 s^-1M^-1; Km ([12]; 25 °C, 25.0 °C): 62 µM and 125 µM; kcat ([12]; 25 °C, 25.0 °C): 7 s⁻¹ and 19 s⁻¹; kcat/Km ([12]; 25 °C, 25.0 °C): 1.1 x 10^5 s^-1M^-1 and 1.5 x 10^5 s^-1M^-1; Km ([12]; 37 °C, 37.0 °C): 83 µM; kcat ([12]; 37 °C, 37.0 °C): 22 s⁻¹; Km [13]: 33 µM; kcat [13]: 8 s⁻¹; kcat/Km [13]: 2.4 x 10^5 s^-1M^-1
